This note sets out measurements from patent publication US20260217779A1 (Chugai, published 2026).

Sequences and labels used below:
B1: hCXCL11.0026-G1T4k.one//VHn-G1T4h.one.H435R (Fc fusion)
chain 1: HFPMFKRGRCLCIGPGVKAVKVADIEKASIMYPSNNCDKIEVIITLKENKGQRCLNPKSKQARLIIKKVERKNFEPKSSDKTHTCPPCPAPELRRGPSVFLFPPKPKDTLMISRTPEVTCVVVDVSHEDPEVKFNWYVDGVEVHNAKTKPREEQYNSTYRVVSVLTVLHQDWLNGKEYKCKVSNKGLPSSIEKTISKAKGQPREPQVCTLPPSREEMTKNQVSLWCLVKGFYPSDIAVEWESNGQPENNYKTTPPVLDSDGSFFLYSKLTVDKSRWQEGNVFSCSVMHEALHNHYTQKSLSLSP
chain 2: EPKSSDKTHTCPPCPAPELRRGPSVFLFPPKPKDTLMISRTPEVTCVVVDVSHEDPEVKFNWYVDGVEVHNAKTKPREEQYNSTYRVVSVLTVLHQDWLNGKEYKCKVSNKGLPSSIEKTISKAKGQPREPQVYTLPPSRCEMTKNQVSLSCAVKGFYPSDIAVEWESNGQPENNYKTTPPVLDSDGSFFLVSKLTVDKSRWQEGNVFSCSVMHEALHNRYTQKSLSLSP
B2: hCXCL11.0031-G1T4k.one//VHn-G1T4h.one.H435R (Fc fusion)
chain 1: NFPMFKRGRCLCIGPGVKAVKVADIEKASIMYPSNNCDKIEVIITLKENKGQRCLNPKSKQARLIIKKVERKNFEPKSSDKTHTCPPCPAPELRRGPSVFLFPPKPKDTLMISRTPEVTCVVVDVSHEDPEVKFNWYVDGVEVHNAKTKPREEQYNSTYRVVSVLTVLHQDWLNGKEYKCKVSNKGLPSSIEKTISKAKGQPREPQVCTLPPSREEMTKNQVSLWCLVKGFYPSDIAVEWESNGQPENNYKTTPPVLDSDGSFFLYSKLTVDKSRWQEGNVFSCSVMHEALHNHYTQKSLSLSP
chain 2: EPKSSDKTHTCPPCPAPELRRGPSVFLFPPKPKDTLMISRTPEVTCVVVDVSHEDPEVKFNWYVDGVEVHNAKTKPREEQYNSTYRVVSVLTVLHQDWLNGKEYKCKVSNKGLPSSIEKTISKAKGQPREPQVYTLPPSRCEMTKNQVSLSCAVKGFYPSDIAVEWESNGQPENNYKTTPPVLDSDGSFFLVSKLTVDKSRWQEGNVFSCSVMHEALHNRYTQKSLSLSP
B3: hCXCL11.0029-G1T4k.one//VHn-G1T4h.one.H435R (Fc fusion)
chain 1: LFPMFKRGRCLCIGPGVKAVKVADIEKASIMYPSNNCDKIEVIITLKENKGQRCLNPKSKQARLIIKKVERKNFEPKSSDKTHTCPPCPAPELRRGPSVFLFPPKPKDTLMISRTPEVTCVVVDVSHEDPEVKFNWYVDGVEVHNAKTKPREEQYNSTYRVVSVLTVLHQDWLNGKEYKCKVSNKGLPSSIEKTISKAKGQPREPQVCTLPPSREEMTKNQVSLWCLVKGFYPSDIAVEWESNGQPENNYKTTPPVLDSDGSFFLYSKLTVDKSRWQEGNVFSCSVMHEALHNHYTQKSLSLSP
chain 2: EPKSSDKTHTCPPCPAPELRRGPSVFLFPPKPKDTLMISRTPEVTCVVVDVSHEDPEVKFNWYVDGVEVHNAKTKPREEQYNSTYRVVSVLTVLHQDWLNGKEYKCKVSNKGLPSSIEKTISKAKGQPREPQVYTLPPSRCEMTKNQVSLSCAVKGFYPSDIAVEWESNGQPENNYKTTPPVLDSDGSFFLVSKLTVDKSRWQEGNVFSCSVMHEALHNRYTQKSLSLSP
B4: hCXCL11.0033-G1T4k.one//VHn-G1T4h.one.H435R (Fc fusion)
chain 1: QFPMFKRGRCLCIGPGVKAVKVADIEKASIMYPSNNCDKIEVIITLKENKGQRCLNPKSKQARLIIKKVERKNFEPKSSDKTHTCPPCPAPELRRGPSVFLFPPKPKDTLMISRTPEVTCVVVDVSHEDPEVKFNWYVDGVEVHNAKTKPREEQYNSTYRVVSVLTVLHQDWLNGKEYKCKVSNKGLPSSIEKTISKAKGQPREPQVCTLPPSREEMTKNQVSLWCLVKGFYPSDIAVEWESNGQPENNYKTTPPVLDSDGSFFLYSKLTVDKSRWQEGNVFSCSVMHEALHNHYTQKSLSLSP
chain 2: EPKSSDKTHTCPPCPAPELRRGPSVFLFPPKPKDTLMISRTPEVTCVVVDVSHEDPEVKFNWYVDGVEVHNAKTKPREEQYNSTYRVVSVLTVLHQDWLNGKEYKCKVSNKGLPSSIEKTISKAKGQPREPQVYTLPPSRCEMTKNQVSLSCAVKGFYPSDIAVEWESNGQPENNYKTTPPVLDSDGSFFLVSKLTVDKSRWQEGNVFSCSVMHEALHNRYTQKSLSLSP
B5: hCXCL11.0032-G1T4k.one//VHn-G1T4h.one.H435R (Fc fusion)
chain 1: PFPMFKRGRCLCIGPGVKAVKVADIEKASIMYPSNNCDKIEVIITLKENKGQRCLNPKSKQARLIIKKVERKNFEPKSSDKTHTCPPCPAPELRRGPSVFLFPPKPKDTLMISRTPEVTCVVVDVSHEDPEVKFNWYVDGVEVHNAKTKPREEQYNSTYRVVSVLTVLHQDWLNGKEYKCKVSNKGLPSSIEKTISKAKGQPREPQVCTLPPSREEMTKNQVSLWCLVKGFYPSDIAVEWESNGQPENNYKTTPPVLDSDGSFFLYSKLTVDKSRWQEGNVFSCSVMHEALHNHYTQKSLSLSP
chain 2: EPKSSDKTHTCPPCPAPELRRGPSVFLFPPKPKDTLMISRTPEVTCVVVDVSHEDPEVKFNWYVDGVEVHNAKTKPREEQYNSTYRVVSVLTVLHQDWLNGKEYKCKVSNKGLPSSIEKTISKAKGQPREPQVYTLPPSRCEMTKNQVSLSCAVKGFYPSDIAVEWESNGQPENNYKTTPPVLDSDGSFFLVSKLTVDKSRWQEGNVFSCSVMHEALHNRYTQKSLSLSP
B6: hCXCL11.0027-G1T4k.one//VHn-G1T4h.one.H435R (Fc fusion)
chain 1: IFPMFKRGRCLCIGPGVKAVKVADIEKASIMYPSNNCDKIEVIITLKENKGQRCLNPKSKQARLIIKKVERKNFEPKSSDKTHTCPPCPAPELRRGPSVFLFPPKPKDTLMISRTPEVTCVVVDVSHEDPEVKFNWYVDGVEVHNAKTKPREEQYNSTYRVVSVLTVLHQDWLNGKEYKCKVSNKGLPSSIEKTISKAKGQPREPQVCTLPPSREEMTKNQVSLWCLVKGFYPSDIAVEWESNGQPENNYKTTPPVLDSDGSFFLYSKLTVDKSRWQEGNVFSCSVMHEALHNHYTQKSLSLSP
chain 2: EPKSSDKTHTCPPCPAPELRRGPSVFLFPPKPKDTLMISRTPEVTCVVVDVSHEDPEVKFNWYVDGVEVHNAKTKPREEQYNSTYRVVSVLTVLHQDWLNGKEYKCKVSNKGLPSSIEKTISKAKGQPREPQVYTLPPSRCEMTKNQVSLSCAVKGFYPSDIAVEWESNGQPENNYKTTPPVLDSDGSFFLVSKLTVDKSRWQEGNVFSCSVMHEALHNRYTQKSLSLSP
B7: hCXCL11.0028-G1T4k.one//VHn-G1T4h.one.H435R (Fc fusion)
chain 1: KFPMFKRGRCLCIGPGVKAVKVADIEKASIMYPSNNCDKIEVIITLKENKGQRCLNPKSKQARLIIKKVERKNFEPKSSDKTHTCPPCPAPELRRGPSVFLFPPKPKDTLMISRTPEVTCVVVDVSHEDPEVKFNWYVDGVEVHNAKTKPREEQYNSTYRVVSVLTVLHQDWLNGKEYKCKVSNKGLPSSIEKTISKAKGQPREPQVCTLPPSREEMTKNQVSLWCLVKGFYPSDIAVEWESNGQPENNYKTTPPVLDSDGSFFLYSKLTVDKSRWQEGNVFSCSVMHEALHNHYTQKSLSLSP
chain 2: EPKSSDKTHTCPPCPAPELRRGPSVFLFPPKPKDTLMISRTPEVTCVVVDVSHEDPEVKFNWYVDGVEVHNAKTKPREEQYNSTYRVVSVLTVLHQDWLNGKEYKCKVSNKGLPSSIEKTISKAKGQPREPQVYTLPPSRCEMTKNQVSLSCAVKGFYPSDIAVEWESNGQPENNYKTTPPVLDSDGSFFLVSKLTVDKSRWQEGNVFSCSVMHEALHNRYTQKSLSLSP
B8: hCXCL11.0030-G1T4k.one//VHn-G1T4h.one.H435R (Fc fusion)
chain 1: MFPMFKRGRCLCIGPGVKAVKVADIEKASIMYPSNNCDKIEVIITLKENKGQRCLNPKSKQARLIIKKVERKNFEPKSSDKTHTCPPCPAPELRRGPSVFLFPPKPKDTLMISRTPEVTCVVVDVSHEDPEVKFNWYVDGVEVHNAKTKPREEQYNSTYRVVSVLTVLHQDWLNGKEYKCKVSNKGLPSSIEKTISKAKGQPREPQVCTLPPSREEMTKNQVSLWCLVKGFYPSDIAVEWESNGQPENNYKTTPPVLDSDGSFFLYSKLTVDKSRWQEGNVFSCSVMHEALHNHYTQKSLSLSP
chain 2: EPKSSDKTHTCPPCPAPELRRGPSVFLFPPKPKDTLMISRTPEVTCVVVDVSHEDPEVKFNWYVDGVEVHNAKTKPREEQYNSTYRVVSVLTVLHQDWLNGKEYKCKVSNKGLPSSIEKTISKAKGQPREPQVYTLPPSRCEMTKNQVSLSCAVKGFYPSDIAVEWESNGQPENNYKTTPPVLDSDGSFFLVSKLTVDKSRWQEGNVFSCSVMHEALHNRYTQKSLSLSP

The target in the test is T1, human CXCR3 (hCXCR3) on Ba/F3 transfectant cells (human, UniProt P49682 1-368).
T1 sequence: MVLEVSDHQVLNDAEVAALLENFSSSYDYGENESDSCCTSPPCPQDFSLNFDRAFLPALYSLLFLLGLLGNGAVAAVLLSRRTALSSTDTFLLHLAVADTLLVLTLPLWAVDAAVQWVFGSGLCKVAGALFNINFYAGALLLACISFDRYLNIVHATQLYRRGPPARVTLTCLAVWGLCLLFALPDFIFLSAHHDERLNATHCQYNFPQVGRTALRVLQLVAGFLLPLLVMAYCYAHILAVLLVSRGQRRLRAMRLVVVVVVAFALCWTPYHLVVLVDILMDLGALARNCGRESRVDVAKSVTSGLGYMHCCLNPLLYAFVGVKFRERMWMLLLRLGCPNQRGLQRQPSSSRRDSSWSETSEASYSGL
Put plainly: cell-based or functional assay.
In the case of B1, the “Activity retention rate at 33 nM” value worked out at 71%, the “Activity retention rate at 100 nM” value is 77%, the “Activity retention rate at 300 nM” value is 80% and the “Luminescence value at 33 nM” value was 5.46e+06. Further, the “Luminescence value at 100 nM” value was 1.29e+07 and the “Luminescence value at 300 nM” value came to 9.92e+06.

Consider B2, for which the “Activity retention rate at 33 nM” value was determined as 165%, the “Activity retention rate at 100 nM” value was found to be 90%, the “Activity retention rate at 300 nM” value was determined as 51% and the “Luminescence value at 33 nM” value came to 1.27e+07. Moreover, the “Luminescence value at 100 nM” value was 1.51e+07 and the “Luminescence value at 300 nM” value amounted to 6.39e+06.

Regarding B3, the “Activity retention rate at 33 nM” value was determined as 53%, the “Activity retention rate at 100 nM” value was found to be 92%, the “Activity retention rate at 300 nM” value was 108% and the “Luminescence value at 33 nM” value is 4.07e+06. Also, the “Luminescence value at 100 nM” value stood at 1.54e+07 and the “Luminescence value at 300 nM” value is 1.34e+07.

For B4, the “Activity retention rate at 33 nM” value turned out to be 199%, the “Activity retention rate at 100 nM” value is 92%, the “Activity retention rate at 300 nM” value is 28% and the “Luminescence value at 33 nM” value came to 1.53e+07. Besides, the “Luminescence value at 100 nM” value came to 1.53e+07 and the “Luminescence value at 300 nM” value stood at 3.46e+06.

On to B5, for which the “Activity retention rate at 33 nM” value amounted to 33%, the “Activity retention rate at 100 nM” value was 68%, the “Activity retention rate at 300 nM” value worked out at 105% and the “Luminescence value at 33 nM” value was 2.5e+06. Further, the “Luminescence value at 100 nM” value was 1.13e+07 and the “Luminescence value at 300 nM” value amounted to 1.31e+07.

Take B6: the “Activity retention rate at 33 nM” value is 67%, the “Activity retention rate at 100 nM” value amounted to 100%, the “Activity retention rate at 300 nM” value is 102% and the “Luminescence value at 33 nM” value is 5.18e+06. Further, the “Luminescence value at 100 nM” value was determined as 1.67e+07 and the “Luminescence value at 300 nM” value was 1.27e+07.

Consider B7, for which the “Activity retention rate at 33 nM” value came to 26%, the “Activity retention rate at 100 nM” value is 53%, the “Activity retention rate at 300 nM” value was determined as 90% and the “Luminescence value at 33 nM” value worked out at 2e+06. For the same molecule, the “Luminescence value at 100 nM” value was 8.87e+06 and the “Luminescence value at 300 nM” value was found to be 1.11e+07.

Consider B8, for which the “Activity retention rate at 33 nM” value is 114%, the “Activity retention rate at 100 nM” value amounted to 98%, the “Activity retention rate at 300 nM” value was determined as 86% and the “Luminescence value at 33 nM” value came out at 8.75e+06. Further, the “Luminescence value at 100 nM” value was 1.64e+07 and the “Luminescence value at 300 nM” value turned out to be 1.06e+07.
